# Experimental data as given in FireProtDB (doi:10.1016/j.neuropharm.2010.07.001).
# Where “and” joins values, the source holds several entries; their conditions need not be identical. Equal entries are not always repeated.
# B1: Adenosine receptor A2a, P29274 (parent)
# chain: MPIMGSSVYITVELAIAVLAILGNVLVCWAVWLNSNLQNVTNYFVVSLAAADIAVGVLAIPFAITISTGFCAACHGCLFIACFVLVLTQSSIFSLLAIAIDRYIAIRIPLRYNGLVTGTRAKGIIAICWVLSFAIGLTPMLGWNNCGQPKEGKNHSQGCGEGQVACLFEDVVPMNYMVYFNFFACVLVPLLLMLGVYLRIFLAARRQLKQMESQPLPGERARSTLQKEVHAAKSLAIIVGLFALCWLPLHIINCFTFFCPDCSHAPLWLMYLAIVLSHTNSVVNPFIYAYRIREFRQTFRKIIRSHVLRQQEPFKAAGTSARVLAAHGSDGEQVSLRLNGHPPGVWANGSAPHPERRPNGYALGLVSGGSAQESQGNTGLPDVELLSHELKGVCPEPPGLDDPLAQDGAGVS
# Variants of: B1
# Details: Homo sapiens; pH 7.5; Thermal; Tris-HCl 50 mM; NaCl 250 mM; structure 5NM2; whole UniProt chain shown
row,Variant,"change of melting temperature, mutant - wild type (higher = more stable)"
1,MPIMGSSVYITVELAIAVLAILGNVLVCWAVWLNSNLQNVTNYFVVSLAAADILVGVLAIPFAITISTGFCAACHGCLFIACFVLVLAQSSIFSLLAIAIDRYIAIRIPLRYNGLVTGTRAAGIIAICWVLSFAIGLTPMLGWNNCGQPKEGKNHSQGCGEGQVACLFEDVVPMNYMVYFNFFACVLVPLLLMLGVYLRIFLAARRQLKQMESQPLPGERARSTLQKEVHAAKSLAIIAGLFALCWLPLHIINCFTFFCPDCSHAPLWLMYLAIVLSHTNSVVNPFIYAYRIREFRQTFRKIIRSHVLRQQEPFKAAGTSARVLAAHGSDGEQVSLRLNGHPPGVWANGSAPHPERRPNGYALGLVSGGSAQESQGNTGLPDVELLSHELKGVCPEPPGLDDPLAQDGAGVS [A54L T88A V239A K122A],12 °C and 10 °C and 9 °C
